# Assay results as given in the supplement of paper PMC5998384.
# How the values were obtained:
# HeLa Kyoto [1] = assay: solubility in G1/S (NP-40 vs SDS abundance) (log2 ratio); higher = more soluble; conditions: cell cycle stage: G1/S
# HeLa Kyoto [2] = assay: thermal stability score vs G1/S (z-score of summed log2 fold changes over temperatures); higher = more thermally stable than in G1/S
# HeLa Kyoto [3] = assay: melting temperature (median over replicates), in situ; higher = more thermally stable
# HeLa Kyoto [4] = assay: solubility change mitosis vs G1/S (difference of NP-40 vs SDS log2 ratios) (log2 ratio difference); higher = more soluble in mitosis
# [5] = cell cycle stage: early G1 (4.5 h after nocodazole release)
# 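Wherever melting temperature (median over replicates), in situ is given: HeLa Kyoto cells synchronized by double thymidine or nocodazole block, proteins quantified by TMT10plex mass spectrometry, three independent biological replicates.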
# 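Wherever solubility change mitosis vs G1/S (difference of NP-40 vs SDS log2 ratios) is given: synchronized HeLa Kyoto cells (double thymidine block for G1/S, nocodazole release for mitosis), protein amounts in NP-40 versus SDS lysates quantified by mass spectrometry, three biological replicates.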
# 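Wherever solubility in G1/S (NP-40 vs SDS abundance) is given: HeLa Kyoto cells arrested at G1/S by double thymidine block, proteins quantified by TMT10plex mass spectrometry in mild NP-40 versus SDS extracts, three biological replicates.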
# 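Wherever thermal stability score vs G1/S (z-score of summed log2 fold changes over temperatures) is given: synchronized HeLa Kyoto cells, proteins quantified by TMT10plex mass spectrometry, three biological replicates, mitosis taken 0.5 h after nocodazole release, G1/S directly after double thymidine block.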
Sequence,solubility in G1/S (log2) (HeLa Kyoto [1]),thermal stability score (HeLa Kyoto [2]; [5]),thermal stability score (HeLa Kyoto [2]; cell cycle stage: mitosis),melting temperature (HeLa Kyoto [3]; cell cycle stage: G1/S),melting temperature (HeLa Kyoto [3]; cell cycle stage: mitosis),solubility change mitosis (log2) (HeLa Kyoto [4])
MWTFLGIATFTYFYKKFGDFITLANREVLLCVLVFLSLGLVLSYRCRHRNGGLLGRQQSGSQFALFSDILSGLPFIGFFWAKSPPESENKEQLEARRRRKGTNISETSLIGTAACTSTSSQNDPEVIIVGAGVLGSALAAVLSRDGRKVTVIERDLKEPDRIVGEFLQPGGYHVLKDLGLGDTVEGLDAQVVNGYMIHDQESKSEVQIPYPLSENNQVQSGRAFHHGRFIMSLRKAAMAEPNAKFIEGVVLQLLEEDDVVMGVQYKDKETGDIKELHAPLTVVADGLFSKFRKSLVSNKVSVSSHFVGFLMKNAPQFKANHAELILANPSPVLIYQISSSETRVLVDIRGEMPRNLREYMVEKIYPQIPDHLKEPFLEATDNSHLRSMPASFLPPSSVKKRGVLLLGDAYNMRHPLTGGGMTVAFKDIKLWRKLLKGIPDLYDDAAIFEAKKSFYWARKTSHSFVVNILAQALYELFSATDDSLHQLRKACFLYFKLGGECVAGPVGLLSVLSPNPLVLIGHFFAVAIYAVYFCFKSEPWITKPRALLSSGAVLYKACSVIFPLIYSEMKYMVH [SQLE],-0.21,-0.599,-0.00194,52.7 °C,53.3 °C,-0.0643
MYALFLLASLLGAALAGPVLGLKECTRGSAVWCQNVKTASDCGAVKHCLQTVWNKPTVKSLPCDICKDVVTAAGDMLKDNATEEEILVYLEKTCDWLPKPNMSASCKEIVDSYLPVILDIIKGEMSRPGEVCSALNLCESLQKHLAELNHQKQLESNKIPELDMTEVVAPFMANIPLLLYPQDGPRSKPQPKDNGDVCQDCIQMVTDIQTAVRTNSTFVQALVEHVKEECDRLGPGMADICKNYISQYSEIAIQMMMHMQPKEICALVGFCDEVKEMPMQTLVPAKVASKNVIPALELVEPIKKHEVPAKSDVYCEVCEFLVKEVTKLIDNNKTEKEILDAFDKMCSKLPKSLSEECQEVVDTYGSSILSILLEEVSPELVCSMLHLCSGTRLPALTVHVTQPKDGGFCEVCKKLVGYLDRNLEKNSTKQEILAALEKGCSFLPDPYQKQCDQFVAEYEPVLIEILVEVMDPSFVCLKIGACPSAHKPLLGTEKCIWGPSYWCQNTETAAQCNAVEHCKRHVWN [PSAP],0.0145,-1.22,-0.0458,58.6 °C,56.3 °C,0.32
MYDNMSTMVYIKEDKLEKLTQDEIISKTKQVIQGLEALKNEHNSILQSLLETLKCLKKDDESNLVEEKSNMIRKSLEMLELGLSEAQVMMALSNHLNAVESEKQKLRAQVRRLCQENQWLRDELANTQQKLQKSEQSVAQLEEEKKHLEFMNQLKKYDDDISPSEDKDTDSTKEPLDDLFPNDEDDPGQGIQQQHSSAAAAAQQGGYEIPARLRTLHNLVIQYASQGRYEVAVPLCKQALEDLEKTSGHDHPDVATMLNILALVYRDQNKYKDAANLLNDALAIREKTLGKDHPAVAATLNNLAVLYGKRGKYKEAEPLCKRALEIREKVLGKDHPDVAKQLNNLALLCQNQGKYEEVEYYYQRALEIYQTKLGPDDPNVAKTKNNLASCYLKQGKFKQAETLYKEILTRAHEREFGSVDDENKPIWMHAEEREECKGKQKDGTSFGEYGGWYKACKVDSPTVTTTLKNLGALYRRQGKFEAAETLEEAAMRSRKQGLDNVHKQRVAEVLNDPENMEKRRSRESLNVDVVKYESGPDGGEEVSMSVEWNGGVSGRASFCGKRQQQQWPGRRHR [KLC1],0.299,0.136,0.172,51.6 °C,51.4 °C,-0.175
MYHNSSQKRHWTFSSEEQLARLRADANRKFRCKAVANGKVLPNDPVFLEPHEEMTLCKYYEKRLLEFCSVFKPAMPRSVVGTACMYFKRFYLNNSVMEYHPRIIMLTCAFLACKVDEFNVSSPQFVGNLRESPLGQEKALEQILEYELLLIQQLNFHLIVHNPYRPFEGFLIDLKTRYPILENPEILRKTADDFLNRIALTDAYLLYTPSQIALTAILSSASRAGITMESYLSESLMLKENRTCLSQLLDIMKSMRNLVKKYEPPRSEEVAVLKQKLERCHSAELALNVITKKRKGYEDDDYVSKKSKHEEEEWTDDDLVESL [CCNH],0.259,0.868,1.73,51.1 °C,52.2 °C,-0.195
